Laboratory results: patent publication US20240239894A1 (AstraZeneca / MedImmune, published 2024)
Residue numbers refer to the chain shown, from its start.

T1: Murine B7-H4-Fc (Mouse B7H4 ECD, Fc_6His) (mouse, UniProt Q7TSP5 25-257)
T1 construct: extracellular domain; also called mouse B7-H4-Fc; FcHis6 tagged murine B7-H4
T1 sequence (Q7TSP5 whole entry, looked up): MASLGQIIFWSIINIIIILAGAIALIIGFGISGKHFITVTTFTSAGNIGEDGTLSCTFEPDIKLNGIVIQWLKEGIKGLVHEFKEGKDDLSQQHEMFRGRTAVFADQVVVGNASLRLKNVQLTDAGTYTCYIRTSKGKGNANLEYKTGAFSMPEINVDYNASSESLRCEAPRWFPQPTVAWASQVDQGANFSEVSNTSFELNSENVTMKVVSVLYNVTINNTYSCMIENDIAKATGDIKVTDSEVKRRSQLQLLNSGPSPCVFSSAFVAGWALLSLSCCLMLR

T2: Human B7-H4-Fc (Human B7H4 ECD, Fc_6His) (human)
T2 construct: also called FcHis6 tagged human B7-H4
T2 sequence (Q7Z7D3 whole entry, looked up): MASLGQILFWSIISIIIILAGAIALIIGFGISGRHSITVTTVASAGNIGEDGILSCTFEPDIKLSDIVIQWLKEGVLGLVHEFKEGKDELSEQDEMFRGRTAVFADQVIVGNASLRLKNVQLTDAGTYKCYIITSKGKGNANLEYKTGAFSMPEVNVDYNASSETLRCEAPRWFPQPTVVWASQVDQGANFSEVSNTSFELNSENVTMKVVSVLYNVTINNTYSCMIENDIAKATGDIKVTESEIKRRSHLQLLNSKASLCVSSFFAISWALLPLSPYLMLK

T3: Human B7-H4 ECD-Flag-His10 (monomeric) (human, UniProt Q7Z7D3 25-259)
T3 construct: Minimally biotinylated for KinExA; also called hB7H4-ECD-Flag-His10; B7-H4-FLAG
T3 sequence: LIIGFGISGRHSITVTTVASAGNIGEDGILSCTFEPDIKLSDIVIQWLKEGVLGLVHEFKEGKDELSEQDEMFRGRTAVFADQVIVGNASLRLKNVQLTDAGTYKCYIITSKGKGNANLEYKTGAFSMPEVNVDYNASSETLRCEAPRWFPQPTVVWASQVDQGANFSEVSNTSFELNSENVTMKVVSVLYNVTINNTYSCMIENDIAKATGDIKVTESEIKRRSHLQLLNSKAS

T4: Murine B7-H4 ECD-Flag-His10 (monomeric) (mouse, UniProt Q7TSP5 25-257)
T4 construct: extracellular domain; also called FlagHis10 murine B7-H4
T4 sequence (looked up): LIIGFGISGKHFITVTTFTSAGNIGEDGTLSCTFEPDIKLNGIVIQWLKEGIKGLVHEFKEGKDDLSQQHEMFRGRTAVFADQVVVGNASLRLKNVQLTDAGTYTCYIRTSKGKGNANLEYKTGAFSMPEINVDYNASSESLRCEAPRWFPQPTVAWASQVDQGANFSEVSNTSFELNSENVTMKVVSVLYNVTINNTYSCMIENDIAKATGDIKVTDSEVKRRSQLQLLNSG

T5: huHHLA2 (human, UniProt Q9UM44 23-344)
T5 construct: Sourced antigen; construct not described; also called Human HHLA2
T5 sequence (looked up): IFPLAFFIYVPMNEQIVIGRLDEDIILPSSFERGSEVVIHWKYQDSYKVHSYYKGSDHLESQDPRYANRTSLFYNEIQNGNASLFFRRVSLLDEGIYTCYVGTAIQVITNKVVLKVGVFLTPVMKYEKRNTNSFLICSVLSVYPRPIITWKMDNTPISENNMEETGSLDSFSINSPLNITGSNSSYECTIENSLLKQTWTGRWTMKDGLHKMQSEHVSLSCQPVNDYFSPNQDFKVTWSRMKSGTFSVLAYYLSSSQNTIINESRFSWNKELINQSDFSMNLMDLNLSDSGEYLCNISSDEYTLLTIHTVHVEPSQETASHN

T6: huBTNL3 (human, UniProt Q6UXE8 18-237, limits assumed)
T6 construct: Sourced antigen; construct not described; also called Human BTNL3
T6 sequence (looked up): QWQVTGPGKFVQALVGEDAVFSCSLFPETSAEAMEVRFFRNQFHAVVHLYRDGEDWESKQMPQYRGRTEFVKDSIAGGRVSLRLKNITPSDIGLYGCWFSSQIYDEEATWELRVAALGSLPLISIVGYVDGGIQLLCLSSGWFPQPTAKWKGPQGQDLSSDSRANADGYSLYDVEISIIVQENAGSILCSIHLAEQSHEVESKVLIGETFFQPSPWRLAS

B1: ZY0EQD-E02 human IgG1-TM (antibody, V domains shown)
VH: QVQLQQWGAGLLKPSETLSLTCAVYGGSFSGYYWNWIRQPPGKGLEWIGEINHSGSTSYNPSLKSRVTISVDTSKNQFSLKLSSVTAADTAVYYCARVLYNWNVDSWGQGTLVTVSS
VL: DIQMTQSPSSLSASVGDRVTITCRASQDIRNDVGWYQQKPGKAPKRLIYAASRLQSGVPSRFSGSGSGTEFTLTISSLQPEDFATYYCLQHNSYPRTFGQGTKVEIK
B2: ZY0EPQ-E02 human IgG1-TM (antibody, V domains shown)
VH: B1 VH with S58N, S70L, V98N, V104L
VL: B1 VL with D28G, V33L, K42R, A50V, R53S
B3: ZY0EP0-C07 human IgG1-TM (antibody, V domains shown)
VH: QVQLVESGGVLVKPGGSLRLSCAASGFTLSDYYMSWIRQAPGMGLEWVSYISSSGSTIYYTDSVKGRFTISRDSAKNSLYLQMNSLRAEDTAVYYCARDGVGFDYWGQGTLVTVSS
VL: EIVLTQSPGTLSLFPGERATLSCRASQSVSSSYLAWYQQKPGQSPRLLIYAASSRATGIPDRFSGSGSGTDFTLTISRLEPEDFAVYYCQQYGSSPLYTFGQGTKLEIK
notes: also called ZY0EPO-C07
B4: ZY0EOB-F05 human IgG1-TM (antibody, V domains shown)
VH: QVQLQESGPGLVKPSQTLSLTCTVSDGSISSGGYYWSWIRQHPGKGLEWIGNIYYSGSTYYNPSLKSRVTISVDTSKNQFSLKLNSVTAADTAVYYCATEKALATVTPSGYENYYTVDVWGQGTTVTVSS
VL: DIQLTQSPSFLSASVGDRVTITCWASQGISSYLAWYQQKPGKAPKLLIYAASTLQSGVPSRFSGSGSGTEFTLTISSLQPEDFATYYCQHLNSYPLTFGGGTKVEIK

Each binder was assayed against T1, Murine B7-H4-Fc (Mouse B7H4 ECD, …) (assay: HTRF binding, human IgG1-TM).

| Binder | EC50 [nM] | Max |
| --- | --- | --- |
| B1 | 1.44 | 224 |
| B2 | 1.76 | 256 |
| B3 | 0.2 | 1250 |
| B4 | 0.19 | 1340 |

What follows are binders tested against T2, Human B7-H4-Fc (Human B7H4 ECD, Fc_6His) (assay: ELISA, absorbance 450 nm; x axis printed as antigen concentration (µg/ml)).

| Binder | EC50 (read off the curve) [µg/mL] |
| --- | --- |
| B1 | ~0.09 |

What follows are binders tested against T3, Human B7-H4 ECD-Flag-His10 (monomeric) in the same assay as above.

| Binder | EC50 (read off the curve) [µg/mL] |
| --- | --- |
| B1 | ~0.08 |

The binders below were run against T4, Murine B7-H4 ECD-Flag-His10 (monomeric) (assay: Octet BLI, hIgG1-TM on Protein G (n = 4-7)).

| Binder | Kd [nM] | koff [s⁻¹] | kon [M⁻¹ s⁻¹] |
| --- | --- | --- | --- |
| B1 | 621 | 0.126 | 203000 |
| B2 | 396 | 0.0304 | 76700 |
| B3 | 11 | 0.000524 | 43000 |
| B4 | 25 | 0.000476 | 18700 |

These binders were tested against T7, Human B7H4 ECD (SV), splice variant, 10His_FLAG (human) (assay: Octet BLI, hIgG1-TM on Protein G (n = 4-7)).
T7 construct: also called B7-H4-SV

| Binder | Kd [nM] | koff [s⁻¹] | kon [M⁻¹ s⁻¹] |
| --- | --- | --- | --- |
| B1 | 801 | 0.00269 | 3360 |
| B2 | 1660 | 0.00229 | 1380 |
| B4 | 174 | 0.000584 | 3350 |

What follows are binders tested against T3, Human B7-H4 ECD-Flag-His10 (monomeric) (assay: Octet BLI, hIgG1-TM on Protein G (n = 4-7)).

| Binder | Kd [nM] | koff [s⁻¹] | kon [M⁻¹ s⁻¹] |
| --- | --- | --- | --- |
| B1 | 14.4 | 0.00278 | 193000 |
| B2 | 25.7 | 0.00182 | 70900 |
| B3 | 9.4 | 0.000397 | 41600 |
| B4 | 13.4 | 0.000355 | 26500 |

The binders below were run against T4, Murine B7-H4 ECD-Flag-His10 (monomeric) (assay: Octet BLI; end of the range tied to the member by Table 9).

| Binder | Kd [nM] |
| --- | --- |
| B1 | 10 to 600 |
| B3 | 10 to 600 |

What follows are binders tested against T7, Human B7H4 ECD (SV), splice variant, … in the same assay as above.

| Binder | Kd [nM] |
| --- | --- |
| B2 | 200 to 1600 |
| B4 | 200 to 1600 |

What follows are binders tested against T3, Human B7-H4 ECD-Flag-His10 (monomeric) in the same assay as above.

| Binder | Kd [nM] |
| --- | --- |
| B2 | 10 to 25 |
| B3 | 10 to 25 |

What follows are binders tested against T8, Cyno B7-H4-Fc (Cyno B7H4 ECD, FcTM_6His) (cynomolgus monkey) (assay: HTRF binding, human IgG1-TM).
T8 construct: extracellular domain; also called cynomolgus B7-H4-Fc

| Binder | EC50 [nM] | Max |
| --- | --- | --- |
| B1 | 0.28 | 1100 |
| B2 | 0.35 | 934 |
| B3 | 0.39 | 890 |
| B4 | 0.15 | 1480 |

Each binder was assayed against T5, huHHLA2 (assay: ELISA).

| Binder | binding result |
| --- | --- |
| B1 | no binding |
| B2 | no binding |
| B3 | no binding |
| B4 | no binding |

The binders below were run against T6, huBTNL3 (assay: ELISA).

| Binder | binding result |
| --- | --- |
| B1 | no binding |
| B2 | no binding |
| B3 | no binding |
| B4 | no binding |

These binders were tested against T9, huBTN3A2 (human, UniProt P78410 30-248, limits assumed) (assay: ELISA).
T9 construct: Sourced antigen; construct not described; also called Human BTN3A2
T9 sequence (P78410 30-248 limits assumed): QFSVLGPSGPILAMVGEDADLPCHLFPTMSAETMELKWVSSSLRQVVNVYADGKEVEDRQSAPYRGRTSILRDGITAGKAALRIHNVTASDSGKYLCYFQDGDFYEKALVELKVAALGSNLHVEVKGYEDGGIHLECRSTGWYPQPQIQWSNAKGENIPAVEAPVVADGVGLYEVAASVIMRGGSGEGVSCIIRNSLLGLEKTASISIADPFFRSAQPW

| Binder | binding result |
| --- | --- |
| B1 | no binding |
| B2 | no binding |
| B3 | no binding |
| B4 | no binding |
